Source: patent publication US10197572B2, “Method and kit for detection of deltanoid-resistant leukemia cells and antibody for use therein” (WROCLAWSKIE CENTRUM BADAN EIT+ SP. Z O.O., priority 2014, dated 2019)

Assays:
KG1 cells [1] = assay: expression of differentiation antigens CD11b and CD14 after exposure to deltanoids; type: cell-based; details: FIG. 4b
Source text: According to the invention, cells from the KG1 acute myeloid leukemia line were used as a model for cells resistant to differentiation mediated by deltanoids. […] Effect on clonal proliferation and differentiation of human myeloid cells. J Clin Invest, 1986. 78: p. […] J Steroid Biochem Mol Biol, 2012. 132(3-5): p. 220-6]. The HL60 acute myeloid leukemia cell line, used in laboratories engaged in studying deltanoid-mediated differentiation, served as a sensitive line model [Marcinkowska, E. et al., Cell differentiating and anti-proliferative activity of side-chain modified analogs of 1,25-dihydroxyvitamin D3. J Steroid Biochem Mol Biol, 1998. 67(1): p. 71-8; Gallagher, R. et al., Characterization of the continuous, differentiating myeloid cell line (HL-60) from a patient with acute promyelocytic leukemia. Blood, 1979. 54: p. 713-733; Brackman, D. et al., Expression of cell surface antigens during the differentiation of HL-60 cells induced by 1,25-dihydroxyvitamin D3, retinoic acid and DMSO. Leuk Res, 1995. 19: p. 57-64].
Studying susceptibility to differentiation mediated by deltanoids is done in a number of ways. One of these is observing the appearance of antigens typical for macrophages on the surface of deltanoid (calcitriol or analogs) treated cells, serving important functions for the macrophages. […]

KG1-CtrA cells [2] = assay: as above; type: cell-based; details: unpublished data
HL60 cells [3] = details: exposure even to low concentrations; cited from earlier work
KG1 cells [4] = details: exposure even to high concentrations; cited from earlier work
HL60 cells [5] = assay: flow cytometry, direct labeling with FITC-labeled scFv; type: binding
Protocol: (§1) FITC-labeled 6B and 8F antibodies were used to label the HL60, KG1 and KG1-CtrA cells. To this end, 5×10^5 cells of each were suspended in 50 μl of PBS buffer without calcium and magnesium ions with 0.1% BSA. Either 1 μg of the 8F/FITC protein or 1 μg of the 6B/FITC protein were added to each suspension. Samples were incubated for 45 minutes in darkness on ice, then washed with PBS without calcium and magnesium ions, supplemented with 0.1% BSA and subsequently fluorescence of the samples was read by flow cytometry.

KG1 cells [6] = assay: as above; type: binding
Protocol: as §1

HL60 cells [7] = assay: flow cytometry, sandwich labeling with scFv and FITC-conjugated secondary antibody; type: binding; details: HL60 + 6B + anti-c-myc-FITC, sandwich method
Protocol: (§2) As a confirmation of the ELISA assays, the flow cytometry analysis was conducted, wherein the cells were labeled with a FITC-conjugated antibody in an scFv format (direct labeling) or with an antibody in an scFv format and then with a FITC-conjugated secondary antibody recognizing the former (sandwich method).
(§3) Optimal dilution of the secondary antibody in the sandwich method is 1:100 or 1:50 (10^5 cells).

KG1 cells [8] = assay: as above; type: binding; details: KG1 + 6B + anti-c-myc-FITC, sandwich method
Protocol: as §2, §3

KG1 cells [9] = assay: library screening with the ELISA method on whole cells; type: binding; details: FIG. 1, background subtracted
Source text: The OD450-OD650 signal informs of the binding strength of the tested antibody to KG1 cells (more particularly: of the amount of the antibody bound to the antigen, being then recognized by a secondary HRP-conjugated antibody). Background signal, namely OD450-OD650 for the control with only the secondary antibody, was then subtracted from all measurements. The numbers and letters indicate the position on a 96-well plate.
(§4) Screening the library in order to find antibodies in an scFv format, specifically interacting with the KG1 line, was done based on ELISA according to the Tomlinson protocol (phages with envelope protein fused with scFv after expression on a 96-well plate served as the primary antibody for ELISA). Again, the cells were not immobilized on a Nunc U plate but only centrifuged in mild conditions. The identified positive clones were expressed in the form of solubilized scFv (without fusion with a phage envelope protein) and purified on a protein A resin, and then tested on KG1 cells and HL60 cells obtaining desired results (specificity against KG1 line) (FIG. 1).

HL60 cells [10] = assay: ELISA on whole cells; type: binding
Source text: as §4
At the same time, it was observed that the HL60 cells spontaneously convert the substrate for HRP conjugated with the secondary antibody, giving results that need to be analyzed with caution. To this end, the reaction for HL60 was stopped sooner but the results required additional confirmation with a different method anyway.

KG1-CtrA cells [11] = assay: flow cytometry, direct labeling with FITC-labeled scFv; type: binding; details: 1 μg 6B/FITC, 5×10^5 KG1-CtrA cells, FIG. 5
Protocol: as §1

C=C1/C(=C\C=C2/CCC[C@]3(C)[C@@H]([C@H](C)CCCC(C)(C)O)CC[C@@H]23)C[C@@H](O)C[C@@H]1O [calcitriol]
differentiation after exposure (KG1 cells [1]): lack of differentiation
expression of differentiation antigens CD11 b and CD14 (KG1-CtrA cells [2]): significantly increase expression
expression of CD14 and CD11b antigens (HL60 cells [3]): significantly increase expression
CD11 b and CD14 expression (KG1 cells [4]): do not alter

B1: 8F: scFv of SEQ ID NO: 2, negative control, same framework as 6B, differing only in hypervariable fragments (protein)
scFv: EVQLLESGGGLVQPGGSLRLSCAASGFTFSSYGMSWVRQAPGKGLEWVSWIDASGTRTQYADSVKGRFTISRDNSKNTLYLQMNSLRAEDTAVYYCAKLFRSFDYWGQGTLVTVSSGGGGSGGGGSGGGGSTDIQMTQSPSSLSASVGDRVTITCRASQSISSYLNWYQQKPGKAPKLLIYRASSLQSGVPSRFSGSGSGTDFTLTISSLQPEDFATYYCQQGQTLPITFGQGTKVEIKRAAA
modifications: antibody 8F
recognition of deltanoid-sensitive leukemia cells (HL60 cells [5]): not recognizing
recognition of deltanoid-resistant leukemia cells (KG1 cells [6]): not recognizing

B2: 6B: scFv of SEQ ID NO: 1, which specifically recognizes KG1 cells line, obtained by phage display (protein)
scFv: EVQLLESGGGLVQPGGSLRLSCAASGFTFSSYGMSWVRQAPGKGLEWVSTIRTAGRATEYADSVKGRFTISRDNSKNTLYLQMNSLRAEDTAVYYCAKSPQTFDYWGQGTLVTVSSGGGGSGGGGSGGGGSTDIQMTQSPSSLSASVGDRVTITCRASQSISSYLNWYQQKPGKAPKLLIYRASRLQSGVPSRFSGSGSGTDFTLTISSLQPEDFATYYCQQRLTIPITFGQGTKVEIKRAAA
modifications: antibody 6B
FITC+: GeoMean (HL60 cells [7]): 9.8
FITC+: mean (HL60 cells [7]): 10.7
FITC+: median (HL60 cells [7]): 8.9
FITC+: % Vis (KG1 cells [8]): 100.0%
FITC+: GeoMean (KG1 cells [8]): 28.1
FITC+: mean (KG1 cells [8]): 29.4
FITC+: median (KG1 cells [8]): 28.4
OD450-OD650 signal (binding strength to KG1 cells) (KG1 cells [9]): clearly prominent
ELISA signal in comparison to control with non-specific scFv (HL60 cells [10]): no increased signal
presence of the 6B-binding antigen (KG1-CtrA cells [11]): lost
